Laboratory results: patent US20180230200A1 (CITY OF HOPE, published 2018)

T1: UL128 expressed from MVA in BHK-21 cells (human cytomegalovirus, UniProt P16837 28-171)
T1 construct: whole, on cells
T1 sequence: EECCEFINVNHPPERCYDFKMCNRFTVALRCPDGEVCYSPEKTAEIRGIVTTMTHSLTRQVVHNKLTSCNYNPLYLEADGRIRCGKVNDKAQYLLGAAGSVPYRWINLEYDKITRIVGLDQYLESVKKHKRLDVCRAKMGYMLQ


How the values were obtained:
[1] = biological target: T2, gH/gL/UL128/UL130/UL131A pentamer complex expressed from MVA-PC in BHK-21 cells (human cytomegalovirus, UniProt P12824 24-743; P16832 31-278; P16837 28-171; P16772 1-214; F5HET4 19-129); assay: FC competition, MVA-PC BHK-21; unlabelled row Ab; competitor: biotinylated AP86; further: test concentration or dose not given here
T2 construct: whole, on cells

[2] = biological target: T2, gH/gL/UL128/UL130/UL131A pentamer …; assay: FC competition, MVA-PC BHK-21; unlabelled row Ab; competitor: biotinylated 2-80; further: test concentration or dose not given here
[3] = biological target: T1, UL128 expressed from MVA in BHK-21 cells; assay: intracellular FC, MVA-infected BHK-21
Experimental: (§1) NAb subunit specificity was evaluated by staining BHK-21 cells infected with different MVA recombinants. One or more vectors were used to co-infect BHK-21 at an MOI of 5. […] Four hours post infection cells were fixed and permeabilized using Cytofix/Cytoperm solution (BD Biosciences). NAbs (1 mg/ml) were diluted 1:500 in perm/wash buffer (BD) and added to the cells for 1 hour at 4° C. […] Cells were washed again and resuspended in PBS/0.1% BSA. Fifteen thousand events were collected using the Gallios Flow Cytometer (Beckman Coulter, Miami, Fla., USA) and analyzed with FlowJo Software (Tree Star, Ashland, Oreg., USA). Uninfected cells and cells infected with MVA-Venus were used as controls. GFP expression was analyzed for confirming MVA infection since all the constructs contain a GFP expression cassette (36, 62).
(§2) In order to determine the antigen specificity of the vaccine-derived NAbs, intracellular flow cytometry (FC) staining of permeabilized BHK-21 cells infected with MVA expressing single subunits or combinations of two or more subunits of the PC was evaluated.

[4] = biological target: T3, UL128/UL130 co-expressed from MVA in BHK-21 cells (human cytomegalovirus, UniProt P16837 28-171; P16772 1-214); assay: intracellular FC, MVA-infected BHK-21
T3 construct: whole, on cells
Experimental: as §1, §2

[5] = biological target: T4, UL128/UL131A co-expressed from MVA in BHK-21 cells (human cytomegalovirus, UniProt P16837 28-171; F5HET4 19-129); assay: intracellular FC, MVA-infected BHK-21
T4 construct: whole, on cells
Experimental: as §1, §2

[6] = biological target: T5, UL130 expressed from MVA in BHK-21 cells (human cytomegalovirus, UniProt P16772 1-214); assay: intracellular FC, MVA-infected BHK-21
T5 construct: whole, on cells
Experimental: as §1, §2

[7] = biological target: T6, UL131A expressed from MVA in BHK-21 cells (human cytomegalovirus, UniProt F5HET4 19-129); assay: intracellular FC, MVA-infected BHK-21
T6 construct: whole, on cells
Experimental: as §1, §2

[8] = biological target: T7, UL130/UL131A co-expressed from MVA in BHK-21 cells (human cytomegalovirus, UniProt P16772 1-214; F5HET4 19-129); assay: intracellular FC, MVA-infected BHK-21
T7 construct: whole, on cells
Experimental: as §1, §2

[9] = biological target: T8, UL128/UL130/UL131A co-expressed from MVA in BHK-21 cells (human cytomegalovirus, UniProt P16837 28-171; P16772 1-214; F5HET4 19-129); assay: intracellular FC, MVA-infected BHK-21
T8 construct: whole, on cells
Experimental: as §1, §2

[10] = biological target: gH of HCMV strain TB40/E (human cytomegalovirus strain TB40/E); assay: cell-based or functional assay
[11] = biological target: gH of HCMV strain TR (human cytomegalovirus strain TR); assay: cell-based or functional assay
[12] = biological target: T2, gH/gL/UL128/UL130/UL131A pentamer …; assay: FC competition, MVA-PC BHK-21; unlabelled row Ab; competitor: biotinylated 18F10
[13] = biological target: T2, gH/gL/UL128/UL130/UL131A pentamer …; assay: FC competition, MVA-PC BHK-21; unlabelled row Ab; competitor: biotinylated 62-11; further: test concentration or dose not given here
[14] = biological target: T2, gH/gL/UL128/UL130/UL131A pentamer …; assay: FC competition, MVA-PC BHK-21; unlabelled row Ab; competitor: biotinylated 21E9; further: test concentration or dose not given here
[15] = biological target: T2, gH/gL/UL128/UL130/UL131A pentamer …; assay: FC, biotinylated NAb titrated on MVA-PC-infected BHK-21 (cell surface PC)

Binder	Binding Inhibition (%) [1] [%]	Binding Inhibition (%) [2] [%]	binding result [3]	binding result [4]	binding result [5]	binding result [6]	binding result [7]	binding result [8]	binding result [9]	IC50, inhibition of TB40/E cell-to-cell spread in ARPE-19 [10] [µg/mL]	IC50, neutralization of TB40/E infection of ARPE-19 [10] [µg/mL]	IC50, neutralization of TB40/E infection of CTB [10] [µg/mL]	IC50, neutralization of TB40/E infection of HUVEC [10] [µg/mL]	IC50, neutralization of TB40/E infection of MRC-5 [10] [µg/mL]	IC50, inhibition of TR cell-to-cell spread in ARPE-19 [11] [µg/mL]	IC50, neutralization of TR infection of ARPE-19 [11] [µg/mL]	IC50, neutralization of TR infection of HUVEC [11] [µg/mL]	IC50, neutralization of TR infection of MRC-5 [11] [µg/mL]	Binding Inhibition (%) [12] [%]	Binding Inhibition (%) [13] [%]	further results
62-11 (antibody, V domains shown, also called NAb 62-11) VH: QVQLQQPGAELVRPGASVKLSCKASGYTFTSYWMNWVKQRPGQGLEWIGMIDPSDSETHYNQMFKDKATLTVDKSSSTAYMQLSSLTSEDSAVYYCSNGYSSFAYWGQGTLVTVSV VL: DVQMTQTTSSLSASLGDRVTISCSASQGISNYLNWYQQKPDGTVKLLIYDTSSLHSGVPSRFSGSGSGTDYSLTISNLEPEDIATYYCQQYSKLPYTFGGGTKLEIK	0	54	no binding	no binding	no binding	no binding	no binding	no binding	no binding	87	0.185	2.76	0.102	0.182	395	0.641	0.83	3.35	0	100	Binding Inhibition (%) [14]: 46%; EC50 [15]: 1.7 nM
62-100 (antibody, V domains shown, also called NAb 62-100) VH: QVQLQQPGAELVRPGASVKLSCKASGYTFTSYWMNWVKQRPGQGLEWIGMIDPSDSETHYNQMFKDKATLTVDKSSSTAYMQLSSLTSEDSAVYYCSNGYSSFAYWGQGTLVTVSV VL: DIVLTQSPATLSVTPGDSVSLSCRASQSISNNLHWYQQKSHESPRLLIKYASQSISGIPSRFSGSGSGTDFTLSINSVETEDFGKYVCQQSNSWPLTFGSGTKLEIK	0	57	no binding	no binding	no binding	no binding	no binding	no binding	no binding	103	0.27	3.62	0.156	0.293	337	2.13	1.03	1.98	0	100	Binding Inhibition (%) [14]: 51%; EC50 [15]: 3.3 nM
2-80 (antibody, V domains shown, also called NAb 2-80) VH: QIQLVQSGPELKKPGETVKISCKASGYTFTNFGMNWVKQAPGKGLKWMGWINTYTGEPTYADDFKGRFAFSLETSASTASLQINNLKNEDTATYFCARRGDGLYSMDYWGQGTSVTVSS VL: DIVLTQSPASLAVSLGQRATISCRASESIDSYGNSFMYWYQQKPGQPPKLLIYRASNLESGIPARFSGSGSRTDFTLTINPVEADDVATYYCQQSNEDPLTFGAGTKLELK	0	100	no binding	no binding	no binding	no binding	no binding	no binding	no binding	> 400	1.43	> 50	1.41	1.6	398	2.12	2.54	1.72	0	43	Binding Inhibition (%) [14]: 100%; EC50 [15]: 2.8 nM
21E9 (antibody, V domains shown, also called NAb 21E9) VH: QIQLVQSGPELKKPGETVKISCKASGYTFTIYGMNWVKQAPGKGLKWMGWINTYTGEPTYADDFRGRFAFSLETSASTAYLQINNLKNEDTATYFCARKGYYGSSGYFDYWGQGTTLTVSS VL: SIVMTQTPKFLLVSAGDRVTITCKASQSVSNDVSWYQQKPGQSPKLLIYYASNRYTGVPDRFTGSGYGTDFTFTISTVQAEDLAVYFCQQDYSSPWTFGGGTKLEIK	0	100	no binding	no binding	no binding	no binding	no binding	no binding	no binding	157	1.41	42.4	2.37	5.78	262	0.926	2.92	4.14	0	32	Binding Inhibition (%) [14]: 100%; EC50 [15]: 18 nM
